# Source: US20200239543A1 (ALX ONCOLOGY, published 2020)
# Biological target: T1, human CD47 (human, UniProt Q08722 19-139)
# T1 construct: extracellular domain; also called CD47 ECD
# Assay: SPR, 25 C, 1:1 Langmuir fit
# T1 sequence (Q08722 19-139 limits assumed): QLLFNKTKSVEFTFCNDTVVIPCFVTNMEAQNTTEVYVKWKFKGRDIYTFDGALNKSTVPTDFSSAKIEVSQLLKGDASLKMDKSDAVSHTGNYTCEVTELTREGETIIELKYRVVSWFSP
row,Kd [nM],Binder
1,5.45,"SIRP-α D1 variant polypeptide of SEQ ID NO: 64 (receptor, engineered SIRP-α D1 domain) EEELQVIQPDKSVSVAAGESAILHCTVTSLIPVGPIQWFRGAGPARELIYNQREGPFPRVTTVSESTKRENMDFSISISNITPADAGTYYCVKFRKGSPDTEFKSGAGTELSVRAKPS"
2,2.4,"SIRP-α D1 variant polypeptide of SEQ ID NO: 69 (receptor, engineered SIRP-α D1 domain) EEELQVIQPDKSVSVAAGESAILHCTITSLIPVGPIQWFRGAGPARELIYNQREGPFPRVTTVSESTKRENMDFSISISNITPADAGTYYCVKFRKGSPDTEFKSGAGTELSVRAKPS"
3,0.206,"SIRP-α D1 variant polypeptide of SEQ ID NO: 67 (receptor, engineered SIRP-α D1 domain) EEELQVIQPDKSVSVAAGESAILHCTITSLFPVGPIQWFRGAGPARELIYNQREGPFPRVTTVSETTKRENMDFSISISNITPADAGTYYCVKFRKGSPDTEFKSGAGTELSVRAKPS"
4,0.8,"SIRP-α D1 variant polypeptide of SEQ ID NO: 65 (receptor, engineered SIRP-α D1 domain) EEELQVIQPDKSVSVAAGESAILHCTVTSLFPVGPIQWFRGAGPARELIYNQREGPFPRVTTVSESTKRENMDFSISISNITPADAGTYYCVKFRKGSPDTEFKSGAGTELSVRAKPS"
5,0.47,"SIRP-α D1 variant polypeptide of SEQ ID NO: 66 (receptor, engineered SIRP-α D1 domain) EEELQVIQPDKSVSVAAGESAILHCTITSLFPVGPIQWFRGAGPARELIYNQREGPFPRVTTVSESTKRENMDFSISISNITPADAGTYYCVKFRKGSPDTEFKSGAGTELSVRAKPS"
6,0.251,"SIRP-α D1 variant polypeptide of SEQ ID NO: 68 (receptor, engineered SIRP-α D1 domain) EEELQIIQPDKSVSVAAGESAILHCTITSLFPVGPIQWFRGAGPARELIYNQREGPFPRVTTVSESTKRENMDFSISISNITPADAGTYYCVKFRKGSPDTEFKSGAGTELSVRAKPS"
7,0.0144,"SIRP-α D1 variant polypeptide of SEQ ID NO: 78 (receptor, engineered SIRP-α D1 domain) EEELQIIQPDKSVLVAAGETATLRCTITSLFPVGPIQWFRGAGPGRVLIYNQRQGPFPRVTTVSDTTKRNNMDFSIRIGAITPADAGTYYCIKFRKGSPDDVEFKSGAGTELSVRAKPS"
8,0.0472,"SIRP-α D1 variant polypeptide of SEQ ID NO: 80 (receptor, engineered SIRP-α D1 domain) EEELQIIQPDKSVLVAAGETATLRCTITSLFPVGPIQWFRGAGPGRVLIYNQREGPFPRVTTVSDTTKRNNMDFSIRIGAITPADAGTYYCIKFRKGSPDDVEFKSGAGTELSVRAKPS"
9,0.217,"SIRP-α D1 variant polypeptide of SEQ ID NO: 79 (receptor, engineered SIRP-α D1 domain) EEELQVIQPDKSVLVAAGETATLRCTATSLFPVGPIQWFRGAGPGRELIYNQRQGPFPRVTTVSDLTKRNNMDFSIRIGAITPADAGTYYCVKFRKGSPDDVEFKSGAGTELSVRAKPS"

# Biological target: T1, human CD47
# Assay: SPR as in Example 1
row,Kd [nM],Binder
1,0.0343,"SIRP-α D1 variant fused to Fc variant, SEQ ID NO: 114 (Fc fusion) EEELQIIQPDKSVLVAAGETATLRCTITSLFPVGPIQWFRGAGPGRVLIYNQRQGPFPRVTTVSDTTKRNNMDFSIRIGNITPADAGTYYCIKFRKGSPDDVEFKSGAGTELSVRAKPSERKSSVECPPCPAPPVAGPSVFLFPPKPKDTLMISRTPEVTCVVVDVSHEDPEVQFNWYVDGVEVHNAKTKPREEQFASTFRVVSVLTVVHQDWLNGKEYKCKVSNKGLPSSIEKTISKTKGQPREPQVYTLPPSREEMTKNQVSLTCLVKGFYPSDIAVEWESNGQPENNYKTTPPMLDSDGSFFLYSKLTVDKSRWQQGNVFSCSVMHEALHNHYTQKSLSLSPGK"
2,0.498,"SIRP-α D1 variant fused to Fc variant, SEQ ID NO: 115 (Fc fusion) EEELQVIQPDKSVLVAAGETATLRCTATSLFPVGPIQWFRGAGPGRELIYNQRQGPFPRVTTVSDLTKRNNMDFSIRIGNITPADAGTYYCVKFRKGSPDDVEFKSGAGTELSVRAKPSERKSSVECPPCPAPPVAGPSVFLFPPKPKDTLMISRTPEVTCVVVDVSHEDPEVQFNWYVDGVEVHNAKTKPREEQFASTFRVVSVLTVVHQDWLNGKEYKCKVSNKGLPSSIEKTISKTKGQPREPQVYTLPPSREEMTKNQVSLTCLVKGFYPSDIAVEWESNGQPENNYKTTPPMLDSDGSFFLYSKLTVDKSRWQQGNVFSCSVMHEALHNHYTQKSLSLSPGK"
3,0.653,"SIRP-α D1 variant fused to Fc variant, SEQ ID NO: 110 (Fc fusion) EEELQVIQPDKSVLVAAGETATLRCTITSLFPVGPIQWFRGAGPGRELIYNQREGPFPRVTTVSDLTKRNNMDFSIRIGAITPADAGTYYCVKFRKGSPDDVEFKSGAGTELSVRAKPSVECPPCPAPPVAGPSVFLFPPKPKDTLMISRTPEVTCVVVDVSHEDPEVQFNWYVDGVEVHNAKTKPREEQFASTFRVVSVLTVVHQDWLNGKEYKCKVSNKGLPSSIEKTISKTKGQPREPQVYTLPPSREEMTKNQVSLTCLVKGFYPSDIAVEWESNGQPENNYKTTPPMLDSDGSFFLYSKLTVDKSRWQQGNVFSCSVMHEALHNHYTQKSLSLSPGK"
4,0.478,"SIRP-α D1 variant fused to Fc variant, SEQ ID NO: 108 (Fc fusion) EEELQVIQPDKSVLVAAGETATLRCTATSLFPVGPIQWFRGAGPGRELIYNQRQGPFPRVTTVSDLTKRNNMDFSIRIGAITPADAGTYYCVKFRKGSPDDVEFKSGAGTELSVRAKPSVECPPCPAPPVAGPSVFLFPPKPKDTLMISRTPEVTCVVVDVSHEDPEVQFNWYVDGVEVHNAKTKPREEQFASTFRVVSVLTVVHQDWLNGKEYKCKVSNKGLPSSIEKTISKTKGQPREPQVYTLPPSREEMTKNQVSLTCLVKGFYPSDIAVEWESNGQPENNYKTTPPMLDSDGSFFLYSKLTVDKSRWQQGNVFSCSVMHEALHNHYTQKSLSLSPGK"
5,2.15,"SIRP-α D1 variant fused to Fc variant, SEQ ID NO: 109 (Fc fusion) EEELQVIQPDKSVLVAAGETATLRCTATSLFPVGPIQWFRGAGPGRELIYNQREGPFPRVTTVSDLTKRNNMDFSIRIGAITPADAGTYYCVKFRKGSPDDVEFKSGAGTELSVRAKPSVECPPCPAPPVAGPSVFLFPPKPKDTLMISRTPEVTCVVVDVSHEDPEVQFNWYVDGVEVHNAKTKPREEQFASTFRVVSVLTVVHQDWLNGKEYKCKVSNKGLPSSIEKTISKTKGQPREPQVYTLPPSREEMTKNQVSLTCLVKGFYPSDIAVEWESNGQPENNYKTTPPMLDSDGSFFLYSKLTVDKSRWQQGNVFSCSVMHEALHNHYTQKSLSLSPGK"
6,0.315,"SIRP-α D1 variant fused to Fc variant, SEQ ID NO: 111 (Fc fusion) EEELQIIQPDKSVLVAAGETATLRCTITSLFPVGPIQWFRGAGPGRELIYNQREGPFPRVTTVSDLTKRNNMDFSIRIGAITPADAGTYYCVKFRKGSPDDVEFKSGAGTELSVRAKPSVECPPCPAPPVAGPSVFLFPPKPKDTLMISRTPEVTCVVVDVSHEDPEVQFNWYVDGVEVHNAKTKPREEQFASTFRVVSVLTVVHQDWLNGKEYKCKVSNKGLPSSIEKTISKTKGQPREPQVYTLPPSREEMTKNQVSLTCLVKGFYPSDIAVEWESNGQPENNYKTTPPMLDSDGSFFLYSKLTVDKSRWQQGNVFSCSVMHEALHNHYTQKSLSLSPGK"
7,0.811,"SIRP-α D1 variant fused to Fc variant, SEQ ID NO: 106 (Fc fusion) EEELQVIQPDKSVLVAAGETATLRCTATSLFPVGPIQWFRGAGPGRELIYNQRQGPFPRVTTVSDLTKRNNMDFSIRIGNITPADAGTYYCVKFRKGSPDDVEFKSGAGTELSVRAKPSVECPPCPAPPVAGPSVFLFPPKPKDTLMISRTPEVTCVVVDVSHEDPEVQFNWYVDGVEVHNAKTKPREEQFASTFRVVSVLTVVHQDWLNGKEYKCKVSNKGLPSSIEKTISKTKGQPREPQVYTLPPSREEMTKNQVSLTCLVKGFYPSDIAVEWESNGQPENNYKTTPPMLDSDGSFFLYSKLTVDKSRWQQGNVFSCSVMHEALHNHYTQKSLSLSPGK"
8,3.46,"SIRP-α D1 variant fused to Fc variant, SEQ ID NO: 135 (Fc fusion) EEELQVIQPDKSVLVAAGETATLRCTATSLFPVGPIQWFRGAGPGRELIYNQREGPFPRVTTVSDLTKRNNMDFSIRIGAITPADAGTYYCVKFRKGSPDDVEFKSGAGTELSVRAKPSDKTHTCPPCPAPEAAGAPSVFLFPPKPKDTLMISRTPEVTCVVVDVSHEDPEVKFNWYVDGVEVHNAKTKPREEQYASTYRVVSVLTVLHQDWLNGKEYKCKVSNKALPAPIEKTISKAKGQPREPQVYTLPPSREEMTKNQVSLTCLVKGFYPSDIAVEWESNGQPENNYKTTPPVLDSDGSFFLYSKLTVDKSRWQQGNVFSCSVMHEALHNHYTQKSLSLSPG"
9,0.89,"SIRP-α D1 variant fused to Fc variant, SEQ ID NO: 101 (Fc fusion) EEELQVIQPDKSVLVAAGETATLRCTITSLFPVGPIQWFRGAGPGRELIYNQREGPFPRVTTVSDLTKRNNMDFSIRIGAITPADAGTYYCVKFRKGSPDDVEFKSGAGTELSVRAKPSDKTHTCPPCPAPEAAGAPSVFLFPPKPKDTLMISRTPEVTCVVVDVSHEDPEVKFNWYVDGVEVHNAKTKPREEQYASTYRVVSVLTVLHQDWLNGKEYKCKVSNKALPAPIEKTISKAKGQPREPQVYTLPPSREEMTKNQVSLTCLVKGFYPSDIAVEWESNGQPENNYKTTPPVLDSDGSFFLYSKLTVDKSRWQQGNVFSCSVMHEALHNHYTQKSLSLSPGK"
10,0.895,"SIRP-α D1 variant fused to Fc variant, SEQ ID NO: 99 (Fc fusion) EEELQVIQPDKSVLVAAGETATLRCTATSLFPVGPIQWFRGAGPGRELIYNQRQGPFPRVTTVSDLTKRNNMDFSIRIGAITPADAGTYYCVKFRKGSPDDVEFKSGAGTELSVRAKPSDKTHTCPPCPAPEAAGAPSVFLFPPKPKDTLMISRTPEVTCVVVDVSHEDPEVKFNWYVDGVEVHNAKTKPREEQYASTYRVVSVLTVLHQDWLNGKEYKCKVSNKALPAPIEKTISKAKGQPREPQVYTLPPSREEMTKNQVSLTCLVKGFYPSDIAVEWESNGQPENNYKTTPPVLDSDGSFFLYSKLTVDKSRWQQGNVFSCSVMHEALHNHYTQKSLSLSPGK"
11,0.379,"SIRP-α D1 variant fused to Fc variant, SEQ ID NO: 102 (Fc fusion) EEELQIIQPDKSVLVAAGETATLRCTITSLFPVGPIQWFRGAGPGRELIYNQREGPFPRVTTVSDLTKRNNMDFSIRIGAITPADAGTYYCVKFRKGSPDDVEFKSGAGTELSVRAKPSDKTHTCPPCPAPEAAGAPSVFLFPPKPKDTLMISRTPEVTCVVVDVSHEDPEVKFNWYVDGVEVHNAKTKPREEQYASTYRVVSVLTVLHQDWLNGKEYKCKVSNKALPAPIEKTISKAKGQPREPQVYTLPPSREEMTKNQVSLTCLVKGFYPSDIAVEWESNGQPENNYKTTPPVLDSDGSFFLYSKLTVDKSRWQQGNVFSCSVMHEALHNHYTQKSLSLSPGK"
